Reference: patent US8080400B2, “Crystal structure of monoacylglycerol lipase (MGLL)” (Janssen Pharmaceutica N.V., priority 2009, dated 2011)
Residue numbers refer to the chain shown, from its start. In names and notes the source's numbering stands.

B1: mut-MGLL. 1-303, L169S, L176S: engineered human MGLL 1-303 with cap-domain mutations L169S, L176S; SEQ ID NO: 5 after TEV cleavage (protein)
chain: GMPEESSPRRTPQSIPYQDLPHLVNADGQYLFCRYWKPTGTPKALIFVSHGAGEHSGRYEELARMLMGLDLLVFAHDHVGHGQSEGERMVVSDFHVFVRDVLQHVDSMQKDYPGLPVFLLGHSMGGAIAILTAAERPGHFAGMVLISPLVLANPESATTFKVLAAKVLNSVLPNLSSGPIDSSVLSRNKTEVDIYNSDPLICRAGLKVCFGIQLLNAVSRVERALPKLTVPFLLLQGSADRLCDSKGAYLLMELAKSQDKTLKIYEGAYHVLHKELPEVTNSVFHEINMWVSQRTATAGTASPP
B2: wt-MGLL.1-303: wild-type human MGLL isoform 2, amino acids 1-303, with N-terminal His tag and TEV site (SEQ ID NO: 3) (protein)
chain: MVDHHHHHHENLYFQGMPEESSPRRTPQSIPYQDLPHLVNADGQYLFCRYWKPTGTPKALIFVSHGAGEHSGRYEELARMLMGLDLLVFAHDHVGHGQSEGERMVVSDFHVFVRDVLQHVDSMQKDYPGLPVFLLGHSMGGAIAILTAAERPGHFAGMVLISPLVLANPESATTFKVLAAKVLNLVLPNLSLGPIDSSVLSRNKTEVDIYNSDPLICRAGLKVCFGIQLLNAVSRVERALPKLTVPFLLLQGSADRLCDSKGAYLLMELAKSQDKTLKIYEGAYHVLHKELPEVTNSVFHEINMWVSQRTATAGTASPP
modifications: N-terminal His tag and TEV site
B3: mut-MGLL. 1-303, L169S, L176S, K165A: engineered human MGLL 1-303 with L169S, L176S and surface mutation K165A (protein)
chain: B2 chain with K181A, L185S, L192S
B4: mut-MGLL 1-303, L169S, L176S, K36A, K226A: engineered human MGLL 1-303 with L169S, L176S and surface mutations K36A, K226A (protein)
chain: B2 chain with K52A, L185S, L192S, K242A
B5: mut-MGLL 1-303, L169S, L176S, K226A: engineered human MGLL 1-303 with L169S, L176S and surface mutation K226A (protein)
chain: B2 chain with L185S, L192S, K242A
B6: mut-MGLL. 1-303, L169S, L176S, K160A: engineered human MGLL 1-303 with L169S, L176S and surface mutation K160A (protein)
chain: B2 chain with K176A, L185S, L192S

Key:
[1] = Size exclusion chromatography of protein purified in the absence of detergent (aggregation / monomer); type: physicochemical
Procedure: A pilot purification of wt-MGLL (hMGLL 1-303) (SEQ ID NO: 3), performed in the complete absence of detergent, generated no protein (data not shown). A second purification of wt-MGLL (hMGLL 1-303) (SEQ ID NO: 3) was done with detergent in the lysis buffer only. Frozen cell pellets for wt-MGLL (hMGLL 1-303) (SEQ ID NO: 3) were thawed, resuspended, and lysed in Bugbuster® lysis buffer for 1 hour at 4° C. Bugbuster® lysis buffer is a proprietary lysis buffer from […] that contains detergent. The lysate was clarified by centrifugation at 40,000×g for 1 hr. No detergent was added at this point or during the rest of the purification. From this point forward, the purification protocol and buffers were the same as described below for mut-MGLL. An average of 2.2 mg of wt-MGLL (hMGLL 1-303) (SEQ ID NO: 3) per liter of cell culture was obtained.
Mutant MGLL (mut-MGLL) constructs were purified in the absence of detergent. […] Fractions were analysed by SDS-PAGE. […] Purification yields were determined by Bradford assay using the protein assay kit from BioRad according to manufacturer's instruction with BSA as a standard (Bradford 1976).

MGLL [2] = biological target: T1, MGLL (Homo sapiens, UniProt Q99685, L169S/L176S); test: Kinetic analysis: hydrolysis of coumarin arachidonate (C-A) by MGLL constructs; type: biochemical; conditions: substrate C-A
T1 construct: His tag followed by a TEV cleavage site (N); made in house; host or cells: Sf9 insect cells (baculovirus)
T1 sequence (Q99685 with tags, fused parts or gaps L169S/L176S): B1 chain
Source text: A small fluorescent substrate, 4-methyl coumarin butyrate (4MC-B) was used to compare the activity of the engineered mutants to the activity of wt-MGLL (hMGLL 1-303) (SEQ ID NO: 3). The catalytic efficiency (kcat/KM) for the hydrolysis of the 4MC-B was similar for wt-MGLL (hMGLL 1-303) (SEQ ID NO: 3) and all MGLL mutants tested (Table 2). A larger more aliphatic fluorescent substrate, Coumarin Arachidonate (C-A), structurally more closely related to the MGLL natural substrate, 2-AG, was used to compare the activity of wt-MGLL (hMGLL 1-303) (SEQ ID NO: 3) to TEV cleaved mut-MGLL (hMGLL 1-303 L169S, L176S) (SEQ ID NO: 5).
The Michaelis-Menten parameters for the hydrolysis of 4-methylcoumarin butyrate (4MC-B) and coumarin arachidonate (C-A) substrate were determined using 4-5 nM of MGLL in 20 mM Pipes pH 7 and 150 mM NaCl at 37° C. The change in fluorescence due to substrate hydrolysis was monitored using excitation/emission wavelengths of 335/440 in a Safire II instrument from Tecan. The hyperbolic rates versus substrate concentration curves for the hydrolysis of 4MC-B were fit to the Michaelis-Menten equation using Excel.
The apparent kcat/KM ratio for the hydrolysis of C-A was determined at [S]<<KM. […] The kcat/KM values reported are the average from independent values determined from five substrate concentrations ranging from 700 to 40 nM.

[3] = Thermofluor thermal stability assay (Tm of MGLL protein); type: physicochemical; conditions: for Tm (midpoint of the melting transition): 0.05 mg/ml protein, 50 mM Pipes pH 7, 200 mM NaCl, 100 μM 1,8-ANS, 0.001% Tween
Source text: (§1) Thermofluor® assays detect small changes in the intrinsic melting temperature of proteins based on binding of ligands. Compounds that interact preferentially with the native form of the protein will increase the Tm, the temperature at which half of the protein is unfolded (Pantoliano et al. 2001). The technique monitors changes in the fluorescent intensity of dyes such as 1-anilinonaphthalene-8-sulfonic acid (1,8-ANS). The fluorescent dyes are quenched in aqueous environments but increase in fluorescence on binding to the hydrophobic core of denatured proteins.
as §1, with “The Thermofluor®” for “Thermofluor®”, “assay is a powerful tool to screen for small molecule inhibitors interacting with a protein's active site or allosteric site. The assay detects” for “assays detect”
Thermofluor® assays were conducted to characterize wt-MGLL (hMGLL 1-303) (SEQ ID NO: 3) and mut-MGLL (hMGLL 1-303 L169S, L176S) and evaluate if the MGLL mutants could be used for high-throughput screening using Thermofluor®. Three microliters of protein at a concentration of 0.05 mg/ml in 50 mM Pipes pH 7, 200 mM NaCl, 100 μM 1,8-ANS, and 0.001% Tween was added to pre-dispensed compound plates. Wells were overlaid with silicone oil (1 μL, Fluka, type DC 200) to prevent evaporation. Final compound concentrations varied from 150 to 0.15 μM. Assay plates were heated at a rate of 1° C./min for all experiments over a temperature range sufficient to measure protein unfolding. Fluorescence was measured by continuous illumination with UV light (Hamamatsu LC6) supplied via fiber optic and filtered through a custom band-pass filter (380-400 nm; >60D cutoff). Fluorescence emission was detected by measuring light intensity using a CCD camera (Sensys, Roper Scientific) filtered to detect emission at 500±25 nm, resulting in simultaneous and independent readings of all 384 wells. One or more images were collected at each temperature, and the sum of the pixel intensity in a given area of the assay plate was recorded vs temperature, and fit to standard equations to yield the Tm.

MGLL [4] = test: Kinetic analysis: hydrolysis of 4-methylcoumarin butyrate (4MC-B) by MGLL constructs; type: biochemical, human; conditions: substrate 4MC-B; 4-5 nM MGLL, 20 mM Pipes pH 7, 150 mM NaCl, 37° C.; average of 2 or 4 separate assays
Procedure: The Michaelis-Menten parameters for the hydrolysis of 4-methylcoumarin butyrate (4MC-B) and coumarin arachidonate (C-A) substrate were determined using 4-5 nM of MGLL in 20 mM Pipes pH 7 and 150 mM NaCl at 37° C. […] The hyperbolic rates versus substrate concentration curves for the hydrolysis of 4MC-B were fit to the Michaelis-Menten equation using Excel.

Molecule	quality of the Thermofluor melting transition [3]	Tm (midpoint of the melting transition) [3] [°C]	Km (MGLL [4]) [µM]	also measured
B1	strong transition	56.7		monomer [1]: 90%; catalytic efficiency for hydrolysis of C-A compared with wt-MGLL (MGLL [2]): equivalent
B2	very poor transition	58		
B3			137	
B4			123	
B5			110	
B6			90	
